From IntAct's records for PubMed 15962010

Molecular target: sumf1_human SUMF1 (UniProt Q8NBK3)
Sequence (Q8NBK3 whole entry): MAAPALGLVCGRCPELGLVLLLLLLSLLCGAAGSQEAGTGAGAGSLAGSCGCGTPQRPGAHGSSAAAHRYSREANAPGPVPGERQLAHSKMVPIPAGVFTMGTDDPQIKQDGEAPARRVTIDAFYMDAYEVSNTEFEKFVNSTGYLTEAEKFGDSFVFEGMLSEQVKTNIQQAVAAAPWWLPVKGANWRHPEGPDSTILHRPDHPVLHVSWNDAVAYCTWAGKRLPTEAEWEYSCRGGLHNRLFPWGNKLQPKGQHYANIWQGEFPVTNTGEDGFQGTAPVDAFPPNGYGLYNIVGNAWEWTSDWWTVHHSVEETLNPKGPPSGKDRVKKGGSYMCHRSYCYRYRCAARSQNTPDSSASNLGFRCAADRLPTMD

Inactive C-alpha-formylglycine-generating enzyme 2 (Homo sapiens), Q8NBJ7 C156A;C290A
effect of a mutation on the interaction: disrupting interaction strength
